From article PMC3719020

Tests used:
Pelota = Pelota (UniProt Q9BRX2); test: pull-down; 800 μl RRL incubated with 200 μl of Pelota resin (Pelota immobilized via CnBr); unconjugated quenched CnBr resin as control; depleted lysate blotted for Hbs1
[1] = target: 60S-nascent chain-tRNA complex (β-VHP) (not stated | rabbit (endogenous in reticulocyte lysate)) (UniProt P60468)
[2] = target: β-VHP ribosome-nascent chain complexes (RNCs) (not stated | rabbit (endogenous in reticulocyte lysate)) (UniProt P60468)

UniProt Q9BRX2, sequence (Q9BRX2 whole entry): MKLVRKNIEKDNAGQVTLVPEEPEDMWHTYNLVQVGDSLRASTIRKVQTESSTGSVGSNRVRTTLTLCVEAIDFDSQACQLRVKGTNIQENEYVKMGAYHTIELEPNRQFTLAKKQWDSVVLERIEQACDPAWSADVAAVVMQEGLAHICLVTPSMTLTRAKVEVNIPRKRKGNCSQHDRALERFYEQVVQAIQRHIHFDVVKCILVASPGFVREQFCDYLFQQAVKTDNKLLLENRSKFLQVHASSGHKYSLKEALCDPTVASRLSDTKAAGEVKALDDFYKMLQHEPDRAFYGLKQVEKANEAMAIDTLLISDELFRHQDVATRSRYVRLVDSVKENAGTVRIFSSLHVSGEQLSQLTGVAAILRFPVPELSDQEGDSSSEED

Row | Substance | percent of Hbs1 depleted from the lysate by the Pelota resin (Pelota) [%] | nascent chain ubiquitination of sucrose gradient fractions incubated with E1, E2, ubiquitin and ATP; 60S-nascent chain complexes against 80S RNCs [1] [fold] | inhibition of β-VHP nascent chain ubiquitination by the GTPase mutant Hbs1 H348A (Hbs1-DN) added to the translation reaction [2] [%] | inhibition of β-VHP nascent chain ubiquitination by the GTPase mutant Hbs1 V269G added to the translation reaction [2] [%]
1 | Hbs1 (enzyme) | 80 to 90 |  |  | 
2 | Listerin (enzyme) |  | 10 | 90 | 60
